From patent US9789130B2, “Method for blocking HIV entry into dendritic cells by inhibiting sialoadhesin-sialyllactose binding interactions with gangliosides” (LABORATORIOS DEL DR. ESTEVE, S.A., priority 2011, dated 2017)
One block for each molecule: values may come before it.

Target: T1, Siglec-1 (Homo sapiens, UniProt Q9BZZ2)
T1 construct: Siglec-1 expressed in LPS mDCs capture distinct ganglioside containing vesicles; endogenous in cells; host or cells: LPS-matured monocyte-derived dendritic cells (LPS mDCs) from donor PBMCs
Experiment: VLP capture by LPS mDCs pre-incubated with α-Siglec-1 mAbs
Format: cell-based
Details: 2 μg/ml mAb 7D2 treated with at least 100-fold molar excess of human recombinant protein
Protocol: FIG. 11. Siglec-1 expressed in LPS mDCs capture distinct ganglioside containing vesicles, such as HIV-1 viral-like particles, liposomes, and exosomes. Capture of VLPHIV-Gag-eGFP by LPS mDCs that had been pre-incubated with decreasing concentrations of α-Siglec-1 mAb 7D2 before VLP exposure for 30 min at 37° C.
FIG. 12. Capture of VLPHIV-Gag-eGFP by LPS mDCs that had been pre-incubated with or without 2 μg/ml of α-Siglec-1 mAb 7D2 previously treated or not with at least a 100-fold molar excess of the indicated human recombinant proteins. Of note, Siglec-14 shares 100% of amino acid homology with Siglec-5 in the V-set domain.
FIG. 13. Blocking effect of α-Siglec-1 mAb 7-239. (A) Capture of VLPHIV-Gag-eGFP by LPS mDCs that had been pre-incubated with decreasing concentrations of α-Siglec-1 mAb 7-239 before VLP exposure for 30 min at 37° C. […] (B) Capture of VLPHIV-Gag-eGFP by LPS mDCs that had been pre-incubated with 10 μg/ml of the indicated mAbs before VLP exposure for 3 h at 37° C.

T1 sequence (Q9BZZ2 20-1709): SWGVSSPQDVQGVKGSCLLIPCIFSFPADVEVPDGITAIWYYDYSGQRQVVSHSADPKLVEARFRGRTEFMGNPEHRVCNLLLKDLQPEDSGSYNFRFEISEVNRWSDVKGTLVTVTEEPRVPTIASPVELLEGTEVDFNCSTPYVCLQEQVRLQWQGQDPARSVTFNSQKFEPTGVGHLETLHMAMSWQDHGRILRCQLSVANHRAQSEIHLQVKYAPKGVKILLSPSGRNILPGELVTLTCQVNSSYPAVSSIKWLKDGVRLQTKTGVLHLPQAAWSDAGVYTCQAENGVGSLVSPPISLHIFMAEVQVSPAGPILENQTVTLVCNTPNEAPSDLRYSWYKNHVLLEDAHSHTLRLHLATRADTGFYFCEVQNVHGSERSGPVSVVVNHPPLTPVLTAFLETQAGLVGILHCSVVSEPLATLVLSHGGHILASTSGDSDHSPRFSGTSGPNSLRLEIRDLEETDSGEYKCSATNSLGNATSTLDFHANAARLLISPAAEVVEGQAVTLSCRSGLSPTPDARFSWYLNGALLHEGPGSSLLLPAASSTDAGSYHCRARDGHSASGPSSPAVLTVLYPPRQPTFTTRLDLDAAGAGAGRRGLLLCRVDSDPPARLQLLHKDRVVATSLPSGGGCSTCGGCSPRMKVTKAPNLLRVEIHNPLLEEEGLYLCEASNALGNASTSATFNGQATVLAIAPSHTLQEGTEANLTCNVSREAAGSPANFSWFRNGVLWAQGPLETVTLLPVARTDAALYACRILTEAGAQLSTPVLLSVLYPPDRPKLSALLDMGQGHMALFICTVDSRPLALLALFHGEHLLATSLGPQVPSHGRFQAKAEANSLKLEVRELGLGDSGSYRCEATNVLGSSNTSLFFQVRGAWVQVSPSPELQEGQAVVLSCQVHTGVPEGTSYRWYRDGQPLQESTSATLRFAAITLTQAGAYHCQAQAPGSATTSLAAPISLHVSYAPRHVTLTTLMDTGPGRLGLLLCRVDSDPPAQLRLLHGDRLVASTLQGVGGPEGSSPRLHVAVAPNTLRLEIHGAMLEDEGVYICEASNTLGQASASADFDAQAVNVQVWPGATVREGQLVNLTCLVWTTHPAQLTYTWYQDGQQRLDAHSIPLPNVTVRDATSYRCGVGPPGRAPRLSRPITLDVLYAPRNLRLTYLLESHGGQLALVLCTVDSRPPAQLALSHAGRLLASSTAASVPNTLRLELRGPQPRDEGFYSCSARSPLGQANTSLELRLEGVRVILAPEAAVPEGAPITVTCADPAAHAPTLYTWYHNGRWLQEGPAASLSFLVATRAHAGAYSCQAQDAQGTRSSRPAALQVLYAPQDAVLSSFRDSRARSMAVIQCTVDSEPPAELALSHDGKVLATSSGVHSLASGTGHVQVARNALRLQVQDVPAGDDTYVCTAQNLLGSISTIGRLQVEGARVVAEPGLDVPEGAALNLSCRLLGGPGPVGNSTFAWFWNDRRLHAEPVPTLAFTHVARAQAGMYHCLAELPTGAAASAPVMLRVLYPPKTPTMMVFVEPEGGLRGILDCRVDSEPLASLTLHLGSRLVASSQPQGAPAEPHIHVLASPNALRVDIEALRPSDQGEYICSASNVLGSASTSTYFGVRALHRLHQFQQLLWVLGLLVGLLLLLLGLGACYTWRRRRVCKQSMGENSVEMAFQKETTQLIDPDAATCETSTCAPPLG

VLP capture by LPS mDCs with mAb 7D2 pre-incubated with purified protein: had no effect
B1: CD83: human recombinant CD83 protein used to pre-treat mAb 7D2 (protein, UniProt Q01151 20-205, looked up)
CD83 antigen: TPEVKVACSEDVDLPCTAPWDPQVPYTVSWVKLLEGGEERMETPQEDHLRGQHYHQKGQNGSFDAPNERPYSLKIRNTTSCNSGTYRCTLQDPDGQRNLSGKVILRVTGCPAQRKEETFKKYRAEIVLLLALVIFYLTLIIFTCKFARLQSIFPDFSKAGMERAFLPVTSPNKHLGLVTPHKTELV

VLP capture by LPS mDCs with mAb 7D2 pre-incubated with purified protein: had no effect
B2: purified Siglec-7: human recombinant Siglec-7 protein used to pre-treat mAb 7D2 (protein, UniProt Q9Y286 19-467, looked up)
Sialic acid-binding Ig-like …: QKSNRKDYSLTMQSSVTVQEGMCVHVRCSFSYPVDSQTDSDPVHGYWFRAGNDISWKAPVATNNPAWAVQEETRDRFHLLGDPQTKNCTLSIRDARMSDAGRYFFRMEKGNIKWNYKYDQLSVNVTALTHRPNILIPGTLESGCFQNLTCSVPWACEQGTPPMISWMGTSVSPLHPSTTRSSVLTLIPQPQHHGTSLTCQVTLPGAGVTTNRTIQLNVSYPPQNLTVTVFQGEGTASTALGNSSSLSVLEGQSLRLVCAVDSNPPARLSWTWRSLTLYPSQPSNPLVLELQVHLGDEGEFTCRAQNSLGSQHVSLNLSLQQEYTGKMRPVSGVLLGAVGGAGATALVFLSFCVIFIVVRSCRKKSARPAADVGDIGMKDANTIRGSASQGNLTESWADDNPRHHGLAAHSSGEEREIQYAPLSFHKGEPQDLSGQEATNNEYSEIKIPK
